Results on one molecule are retold here after publication PMC2233640, “Human NCU-G1 can function as a transcription factor and as a nuclear receptor co-activator”.

The target in this data set is T1, NCU-G1 (kidney predominant protein), GST fusion (Homo sapiens, UniProt Q8WWB7 1-406).
T1 sequence: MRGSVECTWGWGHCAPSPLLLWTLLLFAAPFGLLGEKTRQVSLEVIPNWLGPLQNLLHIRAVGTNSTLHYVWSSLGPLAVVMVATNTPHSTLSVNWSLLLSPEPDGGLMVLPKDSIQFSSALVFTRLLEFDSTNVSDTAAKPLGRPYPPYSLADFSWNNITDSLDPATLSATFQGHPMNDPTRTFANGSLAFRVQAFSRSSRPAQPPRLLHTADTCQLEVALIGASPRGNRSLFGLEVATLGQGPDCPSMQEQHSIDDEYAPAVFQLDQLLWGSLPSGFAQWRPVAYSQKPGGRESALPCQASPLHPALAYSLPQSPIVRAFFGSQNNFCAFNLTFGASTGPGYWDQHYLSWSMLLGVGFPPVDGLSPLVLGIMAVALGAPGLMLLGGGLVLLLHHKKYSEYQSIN
As to the kind of experiment: competition; 50-fold molar excess unlabeled vs 32P-FP1, EMSA; EMSA: 3 x 10^4 cpm 32P probe with 2 ug GST-NCU-G1; buffer, salt, pH and temperature not given (as described in ref 17). The conditions noted are these: protein: recombinant; tags: N-terminal GST (pGEX-5X-3); double-stranded.

B1: AP1 oligonucleotide (dsDNA)
DNA 1: CGCTTGATGACTCAGCCGGAA
DNA 2: TTCCGGCTGAGTCATCAAGCG
Turning to B1, the binding result is “no binding”.
